Source: patent publication US20090156490A1
Where no end group is shown, it is not given here. bis‑dPEG6 = hexa-ethylene glycol bifunctional linker (bis-dPEG6 NHS ester)

B1: human tissue transglutaminase (tTGase) (protein)
chain: AEELVLERCDLELETNGRDHHTADLCREKLVVRRGQPFWLTLHFEGRNYEASVDSLTFSVVTGPAPSQEAGTKARFPLRDAVEEGDWTATVVDQQDCTLSLQLTTPANAPIGLYRLSLEASTGYQGSSFVLGHFILLFNAWCPADAVYLDSEEERQEYVLTQQGFIYQGSAKFIKNIPWNFGQFEDGILDICLILLDVNPKFLKNAGRDCSRRSSPVYVGRVVSGMVNCNDDQGVLLGRWDNNYGDGVSPMSWIGSVDILRRWKNHGCQRVKYGQCWVFAAVACTVLRCLGIPTRVVTNYNSAHDQNSNLLIEYFRNEFGEIQGDKSEMIWNFHCWVESWMTRPDLQPGYEGWQALDPTPQEKSEGTYCCGPVPVRAIKEGDLSTKYDAPFVFAEVNADVVDWIQQDDGSVHKSINRSLIVGLKISTKSVGRDEREDITHTYKYPEGSSEEREAFTRANHLNKLAEKEETGMAMRIRVGQSMNMGSDFDVFAHITNNTAEEYVCRLLLCARTVSYNGILGPECGTKYLLNLNLEPFSEKSVPLCILYEKYRDCLTESNLIKVRALLVEPVINSYLLAERDLYLENPEIKIRILGEPKQKRKLVAEVSLQNPLPVALEGCTFTVEGAGLTEEQKTVEIPDPVEAGEEVKVRMDLLPLHMGLHKLVVNFESDKLKAVKGFRNVIIGPA
B2: dimeric peptide 22 (two copies of L11K peptide 17 crosslinked through the Lys side chains by a hexa-ethylene glycol bifunctional linker) (peptide)
peptide: {5‑(and 6-)carboxyfluorescein}-LQLQPFPQPEK(bis‑dPEG6)PYPQPELPY
modifications: also: dimer: two copies crosslinked through Lys11 side chains via hexa-ethylene glycol linker

Experiments:
[1] = molecular target: T1, 33-mer gliadin peptide (non-deamidated, α2-gliadin residues 57-89)
T1 chain: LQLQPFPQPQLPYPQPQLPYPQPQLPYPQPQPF

[2] = molecular target: soluble HLA-DQ2 heterodimer (purified, thrombin-treated DQ2-ligand fusion protein) (human); test: peptide exchange assay (HPSEC, fluorescein-labelled peptide 0.18 µM, soluble DQ2 4.7 µM, 37 C, 45 h), pH 5.5
[3] = molecular target: soluble HLA-DQ2 heterodimer (purified, thrombin-treated DQ2-ligand fusion protein) (human); test: peptide exchange kinetics (HPSEC, fluorescein-labelled peptide, soluble DQ2)
[4] = molecular target: soluble HLA-DQ2 heterodimer (purified, thrombin-treated DQ2-ligand fusion protein) (human); test: peptide exchange kinetics (HPSEC, fluorescein-labelled peptide, soluble DQ2), pH 7.3

Row | Binder | kcat/KM of deamidation [1] | binding maximum (DQ2 bound peptide as a percentage of total peptide) [2] | time to half maximal DQ2 occupancy [3] | maximum occupancy [4]
1 | B1 | kcat/KM=440 min-1 mM-1 |  |  | 
2 | {5(6)‑carboxyfluorescein}-PQPELPYPQ (not fully specified) [peptide 3 (minimal αII epitope)] |  | 7% |  | 
3 | {5(6)‑carboxyfluorescein}-LQLQPFPQPELPYPQPELPYPQPELPYPQPQPF (not fully specified) [33-mer peptide 1 (deamidated 33-mer from α2-gliadin)] |  |  | 8 h | 28%
4 | B2 |  |  | 2.5 h | 40%
